From the nanobody polyreactivity screen of Harvey et al. (2022) come the findings set out here.

The series is described as follows: yeast display, Sf9 membrane polyspecificity reagent, FACS + sequencing; frameworks hold sequencing errors. In a few lines:
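Synthetic nanobody libraries on Saccharomyces cerevisiae BJ5465 were galactose-induced for 36–48 hours, stained 1 hour at 4 °C with 10% biotinylated, detergent-solubilized Sf9 membrane reagent and enriched on streptavidin microbeads. FACS then separated cells into low and high (top ~1%) gates by anti-HA (expression) and streptavidin (reagent binding) fluorescence. Genes were colony-PCR amplified, MiSeq 2 × 250 sequenced and CDR-length filtered. A clone's polyreactivity label is that of its gate of origin.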
On to “QVQIVESGGGLVQAGGSLRLSCAASGRIFGPYPMGWYRQAHVKERELVAAISCRGSSTYYADSVKGRFSISRDYAKNTVYLHMIILKPEDTAVFYCAKYPTYSYDYWGQGTQVTVSS”, for which the “polyreactivity (PSR sort gate)” value is reported as “high polyreactivity”. The same measure for “QVQLVESGGGLVQAGGSLRLSCAASGSTIVRYAMGWYRQAPGKERELVASISSGGTTNYADSVNGRFTISRDNAKNTVYLQMNSLKPEDTAVYFCNGTWAYRGHGYWGQGTQVTVSS”: “low polyreactivity”; for “QVQLQESDGGLVQAGGSLRLSCAASGSISPQYYMGWYRQEPGKEREYVAISKGTTTYYADSVKGRLTISRVNAKNTVYLQMNRLKPEDTAVYCCAAGRWLQKVHAYWDQGTQVTVSS”: “low polyreactivity”. Next, “QVQLVESGGGFVQAGASLRLSCAASGSIFRIYAIGWYRQAPGKERELVAAIDSGGSTNYADSVKGRFTISRDNAKNTVYLQMNSLKPEDTAVYYCNVDAWWLSYSEYDYWGQGTQVTVSS”: “high polyreactivity”.

For “QVQLVESGGGLVQAGGSLRLSCAASGSNLDYNAMGWSRQAPGKERELVAAISTGGRTNYADSVKGRFTISRDNAKNTVYLQMNSLKPDDTAVYYCAADTTTEITDTDYDYWGQGTQVTVSS”, the “polyreactivity (PSR sort gate)” value is “low polyreactivity”. Next, “QVQLVESVVGLVQSRVRHPLSCSASGIIFAQNAMGWYRQAPGKERELVARITSSGGGTNYADSVKGRFTISRDNAKNTVYLQMNSLKPEDTAVYYCATRWPYRSDWGQGTQVTVSS”: “high polyreactivity”.

As for “QVQLVESGGGLVQAGGSLRLSCAASGIFVDNAMGWYRQAPGKERELVAAISGSGGSTFYADSVKGRFTISRDNAKNTVYLQLNSLKPEDTAVYYCNADVYPHPAFFVGHDYWGHGTQVTVSS”, the “polyreactivity (PSR sort gate)” value was “low polyreactivity”. Turning to “QVQLVESGGGLVQAGGSLRLSCAASGSTLSQYAMGWYRQAPGKERELVAAISGGGRTYYADSVKGRFTISRDNAKNTVYLQMNSLKPEDTAVYYCAKVRLKKGTRDSYDYWGQGTQVTVSS”, the “polyreactivity (PSR sort gate)” value is recorded as “high polyreactivity”.

On to “QVQLVESGGGLVQAGGSLRLSCAASGRIFYGNVMGWYRQAPGKERELVAAISGGGSTNYADSVKGRFTISRDNAKNTVYLQMNSLKPEDTAVFYCAADSRPWGSSMDYWGQGTKVTVSS”, for which the “polyreactivity (PSR sort gate)” value is on record as “low polyreactivity”.

For the sequence “QVQLVESGGGLVQAGGSLRLSCAASGFIFYEYAMGWYRQAPGKERELVARITRSDGSTYYADSVKGRFTISRDNAKNTVYFQMNSLKPEDTAVYYCNVRRAYYRRGPYYSTYYYWGQGTQVTVSS”, the “polyreactivity (PSR sort gate)” value is listed as “high polyreactivity”. “QVQLVESGGGLVQAGGSLRLSCAASGRTFWVYAMGWYRQAPGKERELVAAISLSGVSTYYADSVKGRFTISRDNAKNTVYLQMNSLKPDDTAVYYCAAPLIYTPLKYHYWGQGTQVTVSS”: the “polyreactivity (PSR sort gate)” value is reported as “low polyreactivity”. Next, “QVRLVESGGGLVQAGGSLRLSCAASGSTFPYYDMGWYRQAPGKERELVAAITWSSGSTYYADSVKGRFTISRDNAKNTVYLQMNSLKPEDTAVYYCAAELYSYREDYGAHYAYEYWGQGTQVTVSS”: “low polyreactivity”. The same measure for “QVQLVESGGGLVQAGGSLRLSCAASGSTFQSYAMGWYRQAPGKERELVAAISFSGGSTYYADSVKGRFTNSRDNSKNTVYLQMNSLIPEDTAVYYCAKRGWVYFHGYDYWGQGTQVTVSS”: “low polyreactivity”; for “QVQLVESGGGLVQAGGSLRLICAASGRIFLENALGWYRQAPGKERELVATISNGGSTSYADSVKGRFTISRDNAKNKVYLQMISLKPEDTSVYYCAADYCWPYILYGYDYWGEGTQVTVSS”: “low polyreactivity”; for “QVQLVESGGGLVQAGGSLRLSCAASGRIFNLYVMGWYRQAPGKERELVATISSGGSTNYADSVKGRFTISRDNAKNTVYLQMNSLKPEDTAVYYCAAREWRSFDYWGQGTQVTVSS”: “low polyreactivity”.

Regarding “QVQLVESGGGLVQAGGSLRLSCAASGFIFGGYAMGWYRHAPRKERELVAAISRSGGSTYYADSVKGRFTISRDNAKNTVYLQMNSLKPEDTAVYYCNAVPRRQGFNYWGQGTQVSVSS”, the “polyreactivity (PSR sort gate)” value was “high polyreactivity”. As to “QVQLVESGGGLVQAGSSLRLSCAASGGTFYINTKGWYRKAPGKERELVATITIVVSTKYADSVKGRFTISRDNAKNTVYLQMNSLKPEDTAVYYCAKDDVYRDSYLVFDGEMDYWGQGTQVTVSS”, the “polyreactivity (PSR sort gate)” value is given as “low polyreactivity”.

With “QVHLVESGGGLVQAGGSLRLSCAASGFTFVYYTMGWYRQAPGKERELVAAITYGGNTYYADSVKGRFTISRDNAKNTVYLQMNSLKPEDTAVYYCAARYISSYDWGQGTEVTVSS”, the “polyreactivity (PSR sort gate)” value is given as “high polyreactivity”. In the case of “QVQLVESGGGLVQAGGSLRLSCAASGIIFPRNAMGWSREAPGKERELVAAITSGDTTNYADSVKGRFTISRDNAKKTVYLQMNSQKPADTAVYYCAADQFQGNSGFEYWGQGTQVTVSS”, the “polyreactivity (PSR sort gate)” value is “low polyreactivity”. Consider “HVQLVESGGGLVQAGGSLRLSCAASGFTFANNAMGWYRQAPRKERELVAAISRSGGSTYYADSVKGRFTISRDNAKNTVYLQMNSLKPEDTAVYYCAVYNRPYKEYGYNYWGQGTQVTVSS”, for which the “polyreactivity (PSR sort gate)” value is “high polyreactivity”. Next, “QVQIVESGGGLVQAGGSLRISCAASGFTFYPYTMGWYRQAPGKEREFVAAISWNCGSTYYADSVKGRFTISCDNAKNTVYLQMNSLKPEDSAVYYCAKRSYRSSARELDYWGQGTQVTVSS”: “low polyreactivity”. Take “QVQLVESGGGLVQAGGSLRLSCAASGNTFYGYAIGWYRQAPGKERELVASITLSGDSTYYADSVKGRFTISRDNAKNTVYLQMNSLKPEDTAVYYCAGVYTYPLGYYHYTYDYWGQGTQVTVSS”: the “polyreactivity (PSR sort gate)” value was “low polyreactivity”. The same measure for “QVQLVESGGGLVQAGGSLRLSCAASGRIFTVYAMGWYRQAPGKERELVAAISGRGGRTYYADSVKGRFTISRDNAKNTVYLQMNSLKPEDTAGYYCNADTLTLSRPDGDIHTVWMDYWGQGTQVTVSS”: “low polyreactivity”. Turning to “QDQLVESGGGIVQAGGSLRLSCAASGRIFYGYAMGWYRQAPGKERELVAAITSRGTSTYYADSVKGRFTISRDNAKNTVYLQMNSLKPEDTAVFYCNAAYGRSFYSKVFSYNYWGQGTQVTVSS”, the “polyreactivity (PSR sort gate)” value is given as “high polyreactivity”. For the sequence “QVQLVESGGGLVQAGGSLRLSCAASGSTFHHYAMGWYRQAPGKERELVAAITTSGGRTYYADSVKGRFTISRDNAKNTVYLQMNSLKPEDTAVYYCAADRFFYRGGYYYWGQGTQVTVSS”, the “polyreactivity (PSR sort gate)” value is reported as “high polyreactivity”. In the case of “QVQLVESGGGLVQAGGSLRLSCAASGIIFYYNAMGWYRQAPGKERELVASIRWRGGSTYYADSVKGRFTISRDNAKNTVYLQMNSLKPEDTAVYYCNVVKYVYIYSYWEYYYWGQGTQVTVSS”, the “polyreactivity (PSR sort gate)” value is given as “low polyreactivity”. As to “QVQLVESGGGLVQAGGSLRLSCAASGSTFIGYAMGWYRQAPGKERELVAAISRSDGSTYYADSVKGRFTISRDNAKNTVYLQMNSLKPEDTAVYYCNADYYRWYDYWGQGTQVTVSS”, the “polyreactivity (PSR sort gate)” value is on record as “low polyreactivity”. Turning to “QVQLVETGGGLVQAGGSLRLSCAASGSIFGPYAMAWYRQAPGKERELVAVISRSGGSTYYADSVKGRFTISRDNAKNTVYLQMNSLKPEDTAVYYCAAYRGPRADYYWGQGTQVTVSS”, the “polyreactivity (PSR sort gate)” value is “high polyreactivity”. The same measure for “QVQLVESGGGLVQAGGRLRLSCAASGSIFYNYAMGWYRQAPGKERELVAAITRSGGSTYYADSVKGRFTISRDNAKNTVYLQMNSLKPEDTAVYYCAARYPFGSLGRYGYWGQGTQVTVSS”: “high polyreactivity”; for “QVQLVESGGGLVQAGGSLRLSCAASGRIFLIYAMGWYRQAPGKERELVAAISWSGGSTYYADSVKGRFTISRDNAKNTVYLQMNSLKPEDTAVYYCNADDVNYGYYSWYDYWGQGTQVTVSS”: “low polyreactivity”. “QVQLVESGGGLVQAGGSLRLSCAASGRIFYHNAMGWYRQAPGKERELVAAITWSGGSTYYADSVKGRFTISRDNAKNTVYLQMNSLKTDDTAVYYCNALSNRYYSKLGSWGQGTQVTVSS”: the “polyreactivity (PSR sort gate)” value is recorded as “high polyreactivity”. Next, “QVQLVESGGGLVQAGGSLRLSCAASGRIFPLYAMGWYRQAPGKERELGAAISSGGTTYYADSVKGRFTISRDNAKNTVYLQMNSLKPEDTAVYYCARRPAQRWGRFDYWGQGTQVTVSS”: “low polyreactivity”.

For “QVQLVESGGGLVQAGGSLRLSCAASGSIFYYYAMGWYRQAPGKERELVAAITSGGSTYYADSVKGRFTISRDNAKNTVYLQMNSLKPEDTAVYYCAAVFYAAYLRYVWYSYDYWGQGTQVTVSS”, the “polyreactivity (PSR sort gate)” value was “low polyreactivity”. The same measure for “QVQLVESGGGLVQAGGSLRLSCAASGRIFLVYGMGWSRQAPGKERELVASITDRGGSTYYADSVKGRFTISRDNAKNTVYLQMYSLKPEDTAVYYCAADGAFYASTEMDYWGQGTQVTVSS”: “low polyreactivity”; for “QVQLVESGAGLVQAGGSLRLSCAASGSTFGSYTMGWYRQAPGKERELVAAINWSGGNTYYADSVKGRFTISRDTAKNTVYLQMNSLKPEDTAVYYCAAAFYIYGVEGDYWGQGTQVTVSS”: “low polyreactivity”; for “QVQLVESVGGLVQAGGSLRLSCAASGRIFHWYAMGWYRQAPGKERELVAAIRWTGGSTYYADSVKGRFTISRDNAKNTVYLQMNSLKPEDTAVYYCAAKGYTGIFYEMDYWGQGTQVTVSS”: “low polyreactivity”. As for “QFQLVDSRGGLVQAGGSLRLSCAASGAIFGGYAMGWYRTAPGKARELVAGSTRSGGSTYYADSVKGRFTISRDNPKNTVYLQMNSLKPEDTAVYYCAVEIQFYRSPRIVRSYDYWGHGTQVTVSS”, the “polyreactivity (PSR sort gate)” value was “low polyreactivity”. The same measure for “QVQLVESGGGLVQAGGSLRLSCAASGFTFEKNAMGWYRQAPGKERELVAAITSGGSTYYADSVKGRFTISRDNAKNTVYLQMNSLKPEDTAVYYCNAYYTYRFNYWGQGTQVTVSS”: “high polyreactivity”; for “QVQLVESGGGLVQAGGSLRLSCAASGSIFVGNAMGWYIQAPGKERELVAAISRSGGSTYYADSVKGRFTISRDNAKNTVYLQMNSLKPEDTAVYYCAAVRKQGSGFDYWGQGTQVTVSS”: “high polyreactivity”; for “QVQLVESGGGLVQAGGSLRLSCAASGSILYRYTMGWYRPAPGKERELVAAITKRGGRTYYADSVKGRFTISRDNAKNTVYLQMNSLKPEDTAVYYCAAKYYTGGSFEMYYGGQGTQVTVSS”: “high polyreactivity”. Next, “QVLLQESGGGLVQAGGSLRLSCAASGTISTDIRMGWYRLAPGKEPEFVASIDGCSTTYYADSVKVRFTISRDNAKNTVYLQMNSVIPEDSAMYYCAAREATEFYLYYWGQGTQVTVSS”: “low polyreactivity”.
